Our source for the protein stability index values is the supplement of paper PMC10567573.

The nature of the data set: protein stability index of a GFP-peptide fusion (GPS, HEK-293T) (PSI 1-6); higher = more stable.
The mark [1] stands for this setting: treatment: DMSO, c terminus: a fixed tail appended.
Where [2] appears, read: treatment: MLN4924 1 uM, 8 h, c terminus: a fixed tail appended.

± gives the standard deviation.
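Note: 24-mer peptide tiles fused after GFP, lentivirally expressed, FACS-sorted into six equal bins by GFP/DsRed ratio, decoded by Illumina sequencing, PSI is the read-weighted mean bin number.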

With SELSEHLRDPLTSLSHTELEAAEV [FCHSD1], the protein stability index under setting [1] stood at 5.22 ± 0.16 and the protein stability index under setting [2] came out at 5.32 ± 0.13.
In the same order, the values of SETDFETEPETAPTTEPETEPEDD [GNAS] are 5.69 ± 0.19 and 5.581 ± 0.055.
For SFALYLAGFCMFVLSLVKKHYRLQ [CDS1], in that order: 2.25 ± 0.36 and 2.04 ± 0.44.
SFANDRENYDIIKTYHYLYLAMLE [FEM1B] showed a protein stability index under setting [1] of 2.44 ± 1.1 and a protein stability index under setting [2] of 2.33 ± 0.61.
On to SFLFLGCSHSFLLAVMGYDRYIAI [OR10K2], for which the protein stability index reads like this: under setting [1], 3.14 ± 0.21; under setting [2], 2.83 ± 0.59.
In the same order, the values of SFSEEGAVGYSSDSETLDLEEAEG [NFE2L1] are 5.75 ± 0.38 and 5.18 ± 0.5.
As for SGLSFITFICYVASSASAFLTAPL [CMTM3], the protein stability index is, setting by setting: under setting [1], 3.15 ± 0.49; under setting [2], 2.96 ± 0.3.
Consider SGYMEGYYTFHFLYFKDKIFNVAI [FBXO3], for which the protein stability index runs as follows: under setting [1], 3.36 ± 0.48; under setting [2], 2.75 ± 0.15.
In the same order, the values of SHECKPEGYEFCHNRKVLTIFSAS [PPEF2] are 2.73 ± 0.38 and 2.76 ± 0.17.
Regarding SHEDVCVFKCSVSRETECSRVGKQ [CARM1], the protein stability index under setting [1] was 4.11 ± 0.25 and the protein stability index under setting [2] is 4.12 ± 0.31.
In the same order, the values of SHLPTRSPSFPEAPDSGRSAPYSA [TBX6] are 4.61 ± 0.21 and 4.52 ± 0.28.
In the case of SHLVIHNLFEGMIWFIVPISCVIC [CDS2], the protein stability index turned out to be 3.09 ± 0.45 under setting [1] and 2.81 ± 0.2 under setting [2].
SHSRERPYKCVQPDCGKAFVSRYK [PLAGL1]: the protein stability index is, setting by setting: under setting [1], 3.34 ± 0.23; under setting [2], 3.37 ± 0.17.
SINAGSWMWLSCSSFFQQFFHCYC [CRY1] displayed a protein stability index under setting [2] of 3.4 ± 0.11.
As to SINVLLMMHGLKPLSLVKRTDLKD [CEP70], the protein stability index by setting is: under setting [1], 2.6 ± 0.6; under setting [2], 2.59 ± 0.78.
As for SIPNLAEVKKKGKMKKLGQAMEED [HDAC6], the protein stability index reads like this: under setting [1], 4.8 ± 0.088; under setting [2], 4.86 ± 0.44.
On to SIQVRRKPQHGVCSQLLGNYRCL [SERPINB9P1], for which the protein stability index runs as follows: (treatment: DMSO, c terminus: native) 2.69 ± 0.51; (treatment: MLN4924 1 uM, 8 h, c terminus: native) 3.09 ± 0.18.
For SLALDIDRDAEDQNRYLDGMVRAH [BET1L], the protein stability index is 4.24 ± 0.17 under setting [1] and 4.39 ± 0.31 under setting [2].
For the sequence SLDTLLEAVESRGGVPGGCVLVPR [SMAD6], the protein stability index came out at 3.23 ± 0.17 under setting [1] and 3.23 ± 0.25 under setting [2].
In the same order, the values of SLENSLREVEARYALQMEQLNGIL [KRT18] are 2.15 ± 0.23 and 2.52 ± 0.26.
Regarding SLGASPTVAGIVGSSYGILQLFSS [MFSD9], the protein stability index came to 2.08 ± 0.35 under setting [1] and 2.17 ± 0.47 under setting [2].
In the same order, the values of SLGYGTNVAATGISQYEDDLPPPP [APBB1IP] are 4.86 ± 0.44 and 4.87 ± 0.42.
Sequence SLKVKFFDLERENACATKEQKNHT [PLD5] gave a protein stability index under setting [1] of 4 ± 0.36.
As for SLQLVFGIELMEVDPIGHVYIFAT [MAGEA6], the protein stability index is, setting by setting: under setting [1], 2.73 ± 0.21; under setting [2], 3 ± 0.28.
As to SMKASLEGNLAETENRYCVQLSQI [KRT17], the protein stability index is 3.22 ± 0.34 under setting [1] and 3.51 ± 0.39 under setting [2].
In the same order, the values of SNAERGTAEPFPRLHNLYSTPRCA [CBY2] are 3.95 ± 0.26 and 4.03 ± 0.14.
For the sequence SNNHHLMLEASEWATIEGLVELLQ [ZBED1], the protein stability index is, setting by setting: under setting [1], 2.66 ± 0.14; under setting [2], 2.71 ± 0.48.
Turning to SQSSTYRGTYEQDGRFEKRQGNPS [ZNF396], the protein stability index under setting [1] amounted to 4.74 ± 0.3 and the protein stability index under setting [2] was 4.79 ± 0.31.
SQVQVSLEDYINDRQYDSRGRFGE [HNF4A] showed a protein stability index under setting [1] of 4.01 ± 0.14 and a protein stability index under setting [2] of 4.18 ± 0.14.
For SQVSYFTYIPENNARGASIFSVTA [PCDHGA10], the protein stability index reads like this: under setting [1], 2.29 ± 0.56; under setting [2], 2.39 ± 0.54.
Turning to SRELASMNLDIVDLLKKAKFHHSD [RHOBTB3], the protein stability index runs as follows: under setting [1], 3.2 ± 0.2; under setting [2], 3.09 ± 0.23.
For SRELEPELRRRRYEYDHWDAAIHG [ALKBH7], in that order: 3.87 ± 0.25 and 3.92 ± 0.18.
With SRQYDKFLTHFILMNDVIDTSGFP [FBXO33], the protein stability index by setting is: under setting [1], 2.51 ± 0.5; under setting [2], 1.97 ± 0.5.
For SRSQNTDMVQKSVSKTLPSTWSDP [CLINT1], the protein stability index stood at 3.87 ± 0.28 under setting [1] and 3.98 ± 0.23 under setting [2].
For SSAGSVSPRSTSVTTTSSASVTTT [KRT13], in that order: 5.25 ± 0.15 and 5.23 ± 0.12.
For SSLFDLSVLKLHHSLQQSEPDLRH [SERTAD1], in that order: 3.23 ± 0.21 and 3.29 ± 0.3.
Take SSPDDKLLTSPRAINNLVLQGCSS [KLHL14]: the protein stability index was 3.99 ± 0.17 under setting [1] and 4.14 ± 0.23 under setting [2].
For SSPDLDDMKLIILANRLCLPHLVA [RHOBTB2], in that order: 2.55 ± 0.5 and 2.44 ± 0.19.
In the same order, the values of SSQPQDNSQVHRETEDVDYGETDF [TMEM40] are 5.58 ± 0.26 and 5.64 ± 0.3.
In the same order, the values of SSRQEKRPLCAQGDWHSPTLIREK [ELOA2] are 4.05 ± 0.24 and 4.23 ± 0.25.
For STAPGLFLVSTHTGEVRTARALLE [PCDHGC5], the protein stability index under setting [1] turned out to be 2.5 ± 0.27 and the protein stability index under setting [2] came to 2.54 ± 0.31.
In the same order, the values of STGYCWCVLVDTGRPIPGTSTRYE [SMOC2] are 2.64 ± 1.8 and 2.12 ± 0.32.
In the same order, the values of STVGSAISRKLGDMRNSATFKSFE [TPD52L2] are 3.28 ± 0.2 and 3.28 ± 0.31.
Take SVCFIFTITIGMFPAVTVEVKSSI [SLC29A1]: the protein stability index runs as follows: under setting [1], 3.17 ± 0.55; under setting [2], 3.46 ± 0.34.
In the same order, the values of SVPDVPKSMAWCENSICVGFKRDY [VPS39] are 2.91 ± 0.16 and 2.94 ± 0.25.
On to SVQQNGSIYIHVYFTKSGFHPDPR [CLPTM1], for which the protein stability index reads like this: under setting [1], 3.14 ± 0.98; under setting [2], 2.29 ± 0.56.
For SWGWDLGRSRLYHDGKNQPGVAYP [SPSB4], in that order: 2.72 ± 0.29 and 2.56 ± 0.26.
Turning to SWVVRVQAAKLLGSMEQVSSHFLE [INTS4], the protein stability index reads like this: under setting [1], 2.47 ± 0.45; under setting [2], 2.53 ± 0.43.
For SYDCTVKLWDPVDGSVVRDFEHRP [WDR88], the protein stability index worked out at 3.44 ± 0.22 under setting [1] and 3.62 ± 0.3 under setting [2].
For the sequence TAFCTHVFPETAFIAVTSYQNHKI [TBX5], the protein stability index by setting is: under setting [1], 2.31 ± 0.41; under setting [2], 2.27 ± 0.42.
TEDEKKELENLAAMDLELQKIAEK [CHGB]: the protein stability index by setting is: under setting [1], 5.47 ± 0.22; under setting [2], 5.57 ± 0.083.
For TEFTLGDDKHYGGFTNKQLQSGQE [PTPRD], in that order: 4.91 ± 0.2 and 4.77 ± 0.13.
For TELSFLVTTHQPTNLVLPSNGSMH [EDNRA], in that order: 2.67 ± 0.33 and 2.44 ± 0.42.
The sequence TEPMAWNETADLGLDIGAQGEPLG [CTNNB1] had a protein stability index under setting [1] of 5.29 ± 0.23 and a protein stability index under setting [2] of 5.25 ± 0.18.
Regarding TEQLIEAVNNGDFEAYAKICDPGL [CAMK2B], the protein stability index by setting is: under setting [1], 4.19 ± 0.22; under setting [2], 4.19 ± 0.23.
In the same order, the values of TESEAHYSSQLSQVQSLITNVESQ [KRT34] are 4.83 ± 0.31 and 4.78 ± 0.21.
In the case of TFFEVSPLCNFNIIESFTELARIV [RAB40A], the protein stability index stood at 2.53 ± 0.42 under setting [1] and 2.43 ± 0.28 under setting [2].
For TFVFLASLLVLIEPVAAGSGIPEV [CLCN6], in that order: 2.91 ± 0.58 and 2.71 ± 0.6.
In the same order, the values of TGAHWMRQPVSFHRVKLTNSTLDP [TBX6] are 2.96 ± 0.074 and 3.02 ± 0.16.
Regarding TGESKEQVANSAFVERVRKRGFEV [HSP90AB1], the protein stability index reads like this: under setting [1], 4.18 ± 0.15; under setting [2], 4.26 ± 0.12.
In the same order, the values of TGIIDSLTISPKAARVGLLQYSTQ [MATN2] are 2.72 ± 1.3 and 2.43 ± 0.23.
In turn, TGVQEVLSALLRATPGEYSVNICG [SPAG8] came in with a protein stability index under setting [1] of 2.5 ± 0.59 and a protein stability index under setting [2] of 2.23 ± 0.16.
For THEEGSYLFWEFATDNYDIGFGVY [ACBD3], in that order: 2.65 ± 0.48 and 2.15 ± 0.32.
For THPVTNTTEKQRLVKKLQDSVLER [GOLPH3L], in that order: 4.13 ± 0.2 and 4.39 ± 0.13.
For TISFRIYKSVLQAVQKTDEGHPFK [RTN1], in that order: 2.13 ± 0.17 and 2.28 ± 0.13.
On to TKEVMNKYKVHGKEILRTLQDVFC [PPEF2], for which the protein stability index is 2.63 ± 0.12 under setting [1] and 2.65 ± 0.34 under setting [2].
In the case of TKKGFYSLSVRHRQVKHYRIFRLP [SLA], the protein stability index by setting is: under setting [1], 2.54 ± 0.45; under setting [2], 2.54 ± 0.31.
For TKMWHPNIYENGDVCISILHPPVD [UBE2R2], in that order: 2.11 ± 0.34 and 2.23 ± 0.055.
For the sequence TLEEKFSDVHPVALNFMKGCLKMN [CDKL4], the protein stability index under setting [1] was 3.08 ± 0.34 and the protein stability index under setting [2] came to 3.16 ± 0.27.
For TLGGELGALEALELSPPLSPASHV [FOXJ1], in that order: 4.12 ± 0.3 and 4.26 ± 0.098.
Turning to TLQGLYLVYHPVQLSTPHAVGVLL [DHCR7], the protein stability index under setting [1] came to 3.18 ± 0.49 and the protein stability index under setting [2] worked out at 2.97 ± 0.5.
In the case of TLRTCYAANPRPDALMKEQLVEMT [ISL2], the protein stability index is, setting by setting: under setting [1], 3.53 ± 0.22; under setting [2], 3.52 ± 0.28.
